This note sets out measurements from patent CN114044821A (INST MILITARY MEDICINE ACADEMY MILITARY SCIENCES PLA, dated 2022).

The test addresses 新冠病毒野生型刺突蛋白(S蛋白)，在假病毒/真病毒表面 (SARS-CoV-2, UniProt P0DTC2 14-1273). The test can be described thus: cell-based or functional assay.

B1: 抗SARS-CoV-2全人源单克隆抗体ZWC12 (antibody, V domains shown)
VH: EVQLVESGGALVQPGGSLRLSCAASGFTFANYAMSWVRQAPGKGLEWVSSMTGSSIDSYYADSVKGRFTISRDNSRNTLYLQMNSLRAEDTAVYYCAKGELLWFGDLLHNWFDPWGRGTLVTVSS
VL: DIVMTQSPATLSVSPGERATLSCRASQSVSTNLAWYQQKPGQAPRLLIHGASTRATGLPARFSGSGSGTEFTLTISSLQSEDFAVYFCQQYDSWPGTFGPGTKVDIKR
For B1, the “假病毒中和 EC50 (luciferase, HEK293T)” value is 1.04 mg/L and the “真病毒中和 EC50 (Vero E6, crystal violet)” value came out at 25 mg/L.
